Test results reported in patent US20110052582A1 (Hoffmann-La Roche, published 2011).
Changes are numbered by the printed parent chain.

T1: Soluble CDCP1 extracellular domain (CDCP1-ECD) (SEQ ID NO:30) fused to Streptavidin Binding Protein (SBP) (human, UniProt Q9H5V8 30-663)
T1 construct: also called SBP-CDCP1-ECD
T1 sequence: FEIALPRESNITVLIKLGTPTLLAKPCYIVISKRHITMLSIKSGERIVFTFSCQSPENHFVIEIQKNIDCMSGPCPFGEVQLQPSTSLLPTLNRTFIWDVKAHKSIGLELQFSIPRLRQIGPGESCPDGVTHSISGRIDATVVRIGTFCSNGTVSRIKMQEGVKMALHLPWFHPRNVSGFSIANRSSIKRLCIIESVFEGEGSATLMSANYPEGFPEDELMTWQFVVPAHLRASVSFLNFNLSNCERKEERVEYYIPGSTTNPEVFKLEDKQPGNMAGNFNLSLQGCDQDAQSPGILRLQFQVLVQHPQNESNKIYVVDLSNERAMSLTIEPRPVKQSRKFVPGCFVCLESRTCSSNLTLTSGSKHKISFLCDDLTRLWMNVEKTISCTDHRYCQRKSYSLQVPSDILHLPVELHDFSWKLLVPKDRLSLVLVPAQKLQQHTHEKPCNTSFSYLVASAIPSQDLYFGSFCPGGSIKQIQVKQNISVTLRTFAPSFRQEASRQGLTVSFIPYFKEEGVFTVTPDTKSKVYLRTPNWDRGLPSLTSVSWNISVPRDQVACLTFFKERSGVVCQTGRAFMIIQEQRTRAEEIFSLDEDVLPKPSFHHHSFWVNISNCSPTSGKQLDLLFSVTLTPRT

B1: hHC4-04 / hLC4-L2 (antibody, V domains shown)
VH: EVQLLESGGGLVQPGGSLRLSCAASGFTFNSYGMSWVRQAPGKGLEWVSTISSGGSYTYYPDSVKGRFTISRDNSKNTLYLQMNSLRAEDTAVYYCARHPDYDGVWFAYWGQGTLVTVSS
VL: EIVLTQSPATLSLSPGERATMSCSVSSSVFYLHWYQQKPGQAPRLWIYDTSKLASGIPARFSGSGSGTDFTLTISSLEPEDFAVYYCQQWNSNPPTFGGGTKVEIK
B2: hHC4-07 / hLC4-I (antibody, V domains shown)
VH: B1 VH with G33A, R98K
VL: B1 VL with L4M, M21L, S24R, V25A, H33S, E78Q
B3: hHC4-07 / hLC4-J (antibody, V domains shown)
VH: B1 VH with G33A, R98K
VL: B1 VL with L4M, S24R, V25A, E78Q
B4: hHC4-a / hLC4-I (antibody, V domains shown)
VH: B1 VH with L5V, Q13K, S75A, T78S
VL: B1 VL with L4M, M21L, S24R, V25A, H33S, E78Q
B5: hHC4-a / hLC4-L (antibody, V domains shown)
VH: B1 VH with L5V, Q13K, S75A, T78S
VL: B1 VL with S24R, V25A
B6: hHC4-K2 / hLC4-I (antibody, V domains shown)
VH: B1 VH with L5V, Q13K, T50S, P61A, S75A, T78S
VL: B1 VL with L4M, M21L, S24R, V25A, H33S, E78Q
B7: hHC4-H / hLC4-L (antibody, V domains shown)
VH: B1 VH with L5V, S49A, T58K, P61V, S75A, T78S
VL: B1 VL with S24R, V25A
notes: also called Humanized CUB4 Antibody No. 58
B8: hHC4-K2 / hLC4-a (antibody, V domains shown)
VH: B1 VH with L5V, Q13K, T50S, P61A, S75A, T78S
VL: B1 VL with M21L, L32V, W46L
B9: hHC4-K / hLC4-L (antibody, V domains shown)
VH: B1 VH with L5V, Q13K, T50S, T58I, P61A, S75A, T78S
VL: B1 VL with S24R, V25A
B10: hHC4-K / hLC4-I (antibody, V domains shown)
VH: B1 VH with L5V, Q13K, T50S, T58I, P61A, S75A, T78S
VL: B1 VL with L4M, M21L, S24R, V25A, H33S, E78Q
B11: hHC4-a / hLC4-M (antibody, V domains shown)
VH: B1 VH with L5V, Q13K, S75A, T78S
VL: B1 VL with S24G, V25A, Q41L, A59D, S76R
B12: hHC4-K / hLC4-a (antibody, V domains shown)
VH: B1 VH with L5V, Q13K, T50S, T58I, P61A, S75A, T78S
VL: B1 VL with M21L, L32V, W46L
B13: hHC4-I / hLC4-I (antibody, V domains shown)
VH: B1 VH with G33A, T50A, P61A, R98K
VL: B1 VL with L4M, M21L, S24R, V25A, H33S, E78Q
B14: hHC4-K2 / hLC4-M (antibody, V domains shown)
VH: B1 VH with L5V, Q13K, T50S, P61A, S75A, T78S
VL: B1 VL with S24G, V25A, Q41L, A59D, S76R
B15: hHC4-K / hLC4-J (antibody, V domains shown)
VH: B1 VH with L5V, Q13K, T50S, T58I, P61A, S75A, T78S
VL: B1 VL with L4M, S24R, V25A, E78Q
B16: hHC4-a / hLC4-L2 (antibody, V domains shown)
VH: B1 VH with L5V, Q13K, S75A, T78S
VL: B1 VL
B17: hHC4-04 / hLC4-a (antibody, V domains shown)
VH: B1 VH
VL: B1 VL with M21L, L32V, W46L
B18: hHC4-I / hLC4-J (antibody, V domains shown)
VH: B1 VH with G33A, T50A, P61A, R98K
VL: B1 VL with L4M, S24R, V25A, E78Q
B19: hHC4-07 / hLC4-K (antibody, V domains shown)
VH: B1 VH with G33A, R98K
VL: B1 VL with M21L, S24R, V25A
B20: hHC4-K / hLC4-M (antibody, V domains shown)
VH: B1 VH with L5V, Q13K, T50S, T58I, P61A, S75A, T78S
VL: B1 VL with S24G, V25A, Q41L, A59D, S76R
B21: hHC4-I / hLC4-L (antibody, V domains shown)
VH: B1 VH with G33A, T50A, P61A, R98K
VL: B1 VL with S24R, V25A
B22: hHC4-07 / hLC4-b (antibody, V domains shown)
VH: B1 VH with G33A, R98K
VL: B1 VL with M21L, L32V, W46L, F70Y
B23: hHC4-K / hLC4-b (antibody, V domains shown)
VH: B1 VH with L5V, Q13K, T50S, T58I, P61A, S75A, T78S
VL: B1 VL with M21L, L32V, W46L, F70Y
B24: hHC4-H / hLC4-J (antibody, V domains shown)
VH: B1 VH with L5V, S49A, T58K, P61V, S75A, T78S
VL: B1 VL with L4M, S24R, V25A, E78Q
notes: also called Humanized CUB4 Antibody No. 36
B25: hHC4-K2 / hLC4-L2 (antibody, V domains shown)
VH: B1 VH with L5V, Q13K, T50S, P61A, S75A, T78S
VL: B1 VL
B26: hHC4-H / hLC4-I (antibody, V domains shown)
VH: B1 VH with L5V, S49A, T58K, P61V, S75A, T78S
VL: B1 VL with L4M, M21L, S24R, V25A, H33S, E78Q
B27: hHC4-K2 / hLC4-L (antibody, V domains shown)
VH: B1 VH with L5V, Q13K, T50S, P61A, S75A, T78S
VL: B1 VL with S24R, V25A
B28: hHC4-04 / hLC4-b (antibody, V domains shown)
VH: B1 VH
VL: B1 VL with M21L, L32V, W46L, F70Y
B29: hHC4-K2 / hLC4-K (antibody, V domains shown)
VH: B1 VH with L5V, Q13K, T50S, P61A, S75A, T78S
VL: B1 VL with M21L, S24R, V25A
B30: hHC4-K / hLC4-c (antibody, V domains shown)
VH: B1 VH with L5V, Q13K, T50S, T58I, P61A, S75A, T78S
VL: B1 VL with L4M, L13V, M21L, L32V, W46L, D69E, E78Q, P79S
B31: hHC4-04 / hLC4-M (antibody, V domains shown)
VH: B1 VH
VL: B1 VL with S24G, V25A, Q41L, A59D, S76R
B32: hHC4-K2 / hLC4-b (antibody, V domains shown)
VH: B1 VH with L5V, Q13K, T50S, P61A, S75A, T78S
VL: B1 VL with M21L, L32V, W46L, F70Y
B33: hHC4-I / hLC4-L2 (antibody, V domains shown)
VH: B1 VH with G33A, T50A, P61A, R98K
VL: B1 VL

These binders were tested against T1, Soluble CDCP1 extracellular domain … (assay: ELISA on captured SBP-CDCP1-ECD, ratio relative to chimeric CUB4 (chHC4)).
Experimental: Soluble CDCP1 extracellular domain (CDCP1-ECD) (SEQ ID NO:30) fused to Streptavidin Binding Protein (SBP) was captured on a sreptavidine plate. To define optimal binding of the antibody to SBP-CDCP1-ECD, 384-well polystyrene plates (NUNC, streptavidin-coated) delivered by MicroCoat, Bernried, Germany (ID-No. 1734776-001) have been coated with pure and stepwise diluted HEK293 supernatant (in BSA/IMDM buffer: 100 mg/ml BSA Fraction V, Roche 10735078001, dissolved in Iscove's Modified Dulbeccos Medium). Using a calibration curve of mouse CUB4 antibodies the optimal dilution factor of the HEK293 supernatant in relation to the streptavidin binding capacity of the microtiter plate was identified. For the standard coating, SBP-CDCP1-ECD containing HEK293 supernatant was diluted (between 1:15 and 1:40) and incubated overnight at 2-8° C. (25 μl per well). Intensive washing of the microtiter plate is necessary to remove remaining unbound SBP-CDCP1-ECD.
Humanized CUB4 antibodies and/or reference antibody (chimeric (chHC4) CUB4 antibody comprising human constant region and mouse VH and VL of SEQ ID NO:1 and 2) were tested either undiluted or using a 12-step-dilution. 12.5 μl per well of each sample was incubated for 90 min at room temperature. After intensive washing using PBS-T (0.1% Tween 20 in PBS) 25 μl of either goat anti-human IgG antibodies coupled with HRP (Jackson ImmunoResearch, Code No: 109-036-098, dilution 1:10000) for human antibodies were added and incubated for 1 hour. After intensive washing the binding of the antibodies was detected with ABTS tablets (Roche Diagnostics GmbH, Cat. No.: 1112422). Absorbance at 405 nm/492 nm was measured using a standard photometer.
B1 was tested, and the relative binding ratio was 0.67. B2: no binding. B3 gave a relative binding ratio of 0.07. B4: no binding. B5 showed a relative binding ratio of 0.55. B6: no binding. B7 showed a relative binding ratio of 0.44. B8 showed a relative binding ratio of 0.1. B9 showed a relative binding ratio of 0.02. B10: no binding. Binder B11 has a relative binding ratio of 0.8. B12: no binding. B13: no binding. In the case of B14, the relative binding ratio is reported as 0.28. B15 was tested, and the relative binding ratio was 0.01. Binder B16 has a relative binding ratio of 0.58. B17 showed a relative binding ratio of 0.39. B18 was tested, and the relative binding ratio was 0.11. In the case of B19, the relative binding ratio is reported as 0.1. With B20 the relative binding ratio was 0.04. Work on B21 yielded a relative binding ratio of 0.11. B22 showed a relative binding ratio of 0.07. B23: no binding. B24 gave a relative binding ratio of 0.52. B25 showed a relative binding ratio of 0.2. B26: no binding. In the case of B27, the relative binding ratio is reported as 0.21. For B28, the relative binding ratio was 0.36. B29 showed a relative binding ratio of 0.3. B30: no binding. B31 showed a relative binding ratio of 0.82. Binder B32 has a relative binding ratio of 0.12. For B33, the relative binding ratio was 0.21.
